In the supplement of paper PMC10065799, “High-throughput profiling of sequence recognition by tyrosine kinases and SH2 domains using bacterial peptide display” (eLife, 2023):

Key:
c-Src SH2 = assay: SH2 binding enrichment of the phosphorylated peptide, bacterial display (enrichment ratio); higher = better substrate or ligand; peptides without Tyr show the background
SHP2-C SH2 = assay: as above
Grb2 SH2 = Grb2 SH2 (UniProt P62993); assay: as above
EPHB1 = EPHB1 (UniProt P54762); assay: phosphorylation enrichment, bacterial display (enrichment ratio); higher = better substrate or ligand; peptides without Tyr show the background
Chain of EPHB1 (P54762 whole entry, looked up): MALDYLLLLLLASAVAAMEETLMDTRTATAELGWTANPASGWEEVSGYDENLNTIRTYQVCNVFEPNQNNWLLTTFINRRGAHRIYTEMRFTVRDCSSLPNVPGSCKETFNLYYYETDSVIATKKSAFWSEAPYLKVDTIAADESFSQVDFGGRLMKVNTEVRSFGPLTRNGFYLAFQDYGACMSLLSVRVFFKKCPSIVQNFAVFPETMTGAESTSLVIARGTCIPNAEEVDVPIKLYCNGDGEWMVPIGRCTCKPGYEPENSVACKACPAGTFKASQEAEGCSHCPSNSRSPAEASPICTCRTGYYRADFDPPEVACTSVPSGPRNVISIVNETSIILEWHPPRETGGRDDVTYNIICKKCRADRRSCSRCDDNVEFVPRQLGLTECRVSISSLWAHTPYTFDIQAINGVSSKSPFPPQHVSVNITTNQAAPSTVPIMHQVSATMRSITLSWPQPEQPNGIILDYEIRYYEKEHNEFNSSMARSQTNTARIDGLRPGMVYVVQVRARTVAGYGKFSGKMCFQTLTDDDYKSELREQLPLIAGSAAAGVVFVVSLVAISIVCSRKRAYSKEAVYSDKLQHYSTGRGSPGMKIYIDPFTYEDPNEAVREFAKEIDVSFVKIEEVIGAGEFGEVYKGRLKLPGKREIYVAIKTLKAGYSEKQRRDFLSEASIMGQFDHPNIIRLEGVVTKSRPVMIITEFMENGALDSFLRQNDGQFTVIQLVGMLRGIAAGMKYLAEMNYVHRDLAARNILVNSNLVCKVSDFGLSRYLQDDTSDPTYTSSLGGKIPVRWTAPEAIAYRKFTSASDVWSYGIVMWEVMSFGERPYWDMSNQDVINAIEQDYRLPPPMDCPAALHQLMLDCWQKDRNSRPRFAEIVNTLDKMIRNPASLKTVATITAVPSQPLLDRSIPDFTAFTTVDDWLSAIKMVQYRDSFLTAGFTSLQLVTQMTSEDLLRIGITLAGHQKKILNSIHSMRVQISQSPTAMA

Fer (mouse) = assay: as above
Jak2 = Jak2 (UniProt O60674); assay: as above
Chain of Jak2 (O60674 whole entry, looked up): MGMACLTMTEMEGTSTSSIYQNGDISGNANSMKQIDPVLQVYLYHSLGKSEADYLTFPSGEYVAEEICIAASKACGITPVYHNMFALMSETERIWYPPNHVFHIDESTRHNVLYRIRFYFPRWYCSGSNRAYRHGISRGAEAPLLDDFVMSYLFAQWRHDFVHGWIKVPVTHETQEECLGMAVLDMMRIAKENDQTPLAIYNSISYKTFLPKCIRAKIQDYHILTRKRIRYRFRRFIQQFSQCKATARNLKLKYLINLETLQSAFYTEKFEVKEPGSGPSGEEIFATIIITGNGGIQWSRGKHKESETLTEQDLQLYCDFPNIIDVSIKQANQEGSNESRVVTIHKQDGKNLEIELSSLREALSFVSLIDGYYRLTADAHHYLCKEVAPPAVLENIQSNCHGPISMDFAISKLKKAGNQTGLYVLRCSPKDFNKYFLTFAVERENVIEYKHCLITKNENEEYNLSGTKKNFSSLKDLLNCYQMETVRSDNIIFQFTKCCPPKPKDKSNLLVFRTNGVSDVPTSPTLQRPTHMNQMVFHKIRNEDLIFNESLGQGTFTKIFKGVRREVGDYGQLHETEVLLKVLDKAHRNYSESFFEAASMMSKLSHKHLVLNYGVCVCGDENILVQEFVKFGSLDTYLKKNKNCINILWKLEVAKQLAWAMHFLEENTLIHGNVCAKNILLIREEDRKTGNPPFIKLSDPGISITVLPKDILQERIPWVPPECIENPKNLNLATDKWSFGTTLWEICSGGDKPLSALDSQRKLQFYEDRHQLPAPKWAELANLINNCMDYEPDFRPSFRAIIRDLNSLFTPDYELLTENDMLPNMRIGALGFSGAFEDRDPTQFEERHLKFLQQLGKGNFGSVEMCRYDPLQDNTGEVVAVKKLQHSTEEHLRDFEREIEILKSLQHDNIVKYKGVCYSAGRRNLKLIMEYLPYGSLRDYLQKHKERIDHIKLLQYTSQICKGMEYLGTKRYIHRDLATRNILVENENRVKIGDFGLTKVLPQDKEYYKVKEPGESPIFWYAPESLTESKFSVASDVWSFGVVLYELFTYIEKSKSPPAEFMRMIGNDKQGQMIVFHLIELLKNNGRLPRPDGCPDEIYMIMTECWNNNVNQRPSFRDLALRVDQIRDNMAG

AncSZ = assay: as above
Fyn = Fyn (UniProt P06241); assay: as above
Chain of Fyn (P06241 whole entry, looked up): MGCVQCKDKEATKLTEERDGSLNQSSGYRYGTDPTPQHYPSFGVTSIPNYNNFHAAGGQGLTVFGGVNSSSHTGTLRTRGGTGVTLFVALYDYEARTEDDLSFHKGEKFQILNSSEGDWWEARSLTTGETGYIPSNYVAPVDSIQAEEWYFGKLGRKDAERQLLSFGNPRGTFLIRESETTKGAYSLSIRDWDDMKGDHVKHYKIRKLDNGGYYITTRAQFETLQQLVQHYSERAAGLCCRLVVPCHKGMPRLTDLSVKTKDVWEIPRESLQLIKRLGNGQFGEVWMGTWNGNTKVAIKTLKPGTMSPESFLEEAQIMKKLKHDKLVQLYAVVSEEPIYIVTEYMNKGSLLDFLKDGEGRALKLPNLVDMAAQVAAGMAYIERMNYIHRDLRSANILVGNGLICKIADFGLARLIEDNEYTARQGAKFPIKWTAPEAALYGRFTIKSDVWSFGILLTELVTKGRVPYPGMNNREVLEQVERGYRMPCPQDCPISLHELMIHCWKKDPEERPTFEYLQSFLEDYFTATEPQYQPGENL

EPHB2 = EPHB2 (UniProt P29323); assay: as above
MERTK = MERTK (UniProt Q12866); assay: as above
Chain of MERTK (Q12866 whole entry, looked up): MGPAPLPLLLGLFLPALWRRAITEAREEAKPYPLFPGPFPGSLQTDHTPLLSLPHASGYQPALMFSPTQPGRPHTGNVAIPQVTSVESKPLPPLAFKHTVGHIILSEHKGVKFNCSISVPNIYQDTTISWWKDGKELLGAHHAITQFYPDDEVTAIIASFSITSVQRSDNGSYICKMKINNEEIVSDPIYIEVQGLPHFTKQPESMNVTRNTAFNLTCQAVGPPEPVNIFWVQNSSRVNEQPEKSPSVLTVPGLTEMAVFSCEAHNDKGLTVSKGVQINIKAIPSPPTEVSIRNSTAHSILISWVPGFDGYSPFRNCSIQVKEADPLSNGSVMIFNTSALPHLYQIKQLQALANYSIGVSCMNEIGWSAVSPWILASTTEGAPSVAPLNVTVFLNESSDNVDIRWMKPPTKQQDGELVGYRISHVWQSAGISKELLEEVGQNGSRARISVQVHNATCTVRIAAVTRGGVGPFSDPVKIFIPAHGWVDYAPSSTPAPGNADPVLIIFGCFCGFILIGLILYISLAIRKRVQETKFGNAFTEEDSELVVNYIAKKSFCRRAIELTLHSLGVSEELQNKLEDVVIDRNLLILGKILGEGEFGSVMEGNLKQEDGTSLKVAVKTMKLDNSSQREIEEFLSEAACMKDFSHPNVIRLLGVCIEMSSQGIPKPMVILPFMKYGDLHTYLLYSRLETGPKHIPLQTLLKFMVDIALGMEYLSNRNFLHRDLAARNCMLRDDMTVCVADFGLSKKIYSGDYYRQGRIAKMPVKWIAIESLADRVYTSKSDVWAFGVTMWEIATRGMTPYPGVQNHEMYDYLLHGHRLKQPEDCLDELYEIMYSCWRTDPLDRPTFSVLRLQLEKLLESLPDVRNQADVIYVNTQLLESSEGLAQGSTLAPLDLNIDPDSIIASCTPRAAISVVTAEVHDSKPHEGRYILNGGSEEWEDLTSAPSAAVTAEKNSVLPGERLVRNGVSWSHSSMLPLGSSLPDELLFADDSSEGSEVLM

Hck = Hck (UniProt P08631); assay: as above
Chain of Hck (P08631 whole entry, looked up): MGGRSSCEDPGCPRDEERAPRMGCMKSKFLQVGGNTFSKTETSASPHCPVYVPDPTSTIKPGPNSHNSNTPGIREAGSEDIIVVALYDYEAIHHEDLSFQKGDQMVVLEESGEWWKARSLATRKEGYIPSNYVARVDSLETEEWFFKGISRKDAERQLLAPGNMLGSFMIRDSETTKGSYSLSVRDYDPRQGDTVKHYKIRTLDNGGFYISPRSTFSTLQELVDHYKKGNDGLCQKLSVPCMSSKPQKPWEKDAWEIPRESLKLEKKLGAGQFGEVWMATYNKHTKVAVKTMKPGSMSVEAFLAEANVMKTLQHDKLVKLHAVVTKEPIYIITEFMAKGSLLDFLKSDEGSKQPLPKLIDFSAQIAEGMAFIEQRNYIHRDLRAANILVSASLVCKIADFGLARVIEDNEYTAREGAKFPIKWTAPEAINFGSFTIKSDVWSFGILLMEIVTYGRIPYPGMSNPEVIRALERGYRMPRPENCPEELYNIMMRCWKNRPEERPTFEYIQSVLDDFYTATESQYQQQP

c-Src = assay: as above
FGFR1 = FGFR1 (UniProt P11362); assay: as above
c-Abl (mouse) = assay: as above
Fes = Fes (UniProt P07332); assay: as above
Chain of Fes (P07332 whole entry, looked up): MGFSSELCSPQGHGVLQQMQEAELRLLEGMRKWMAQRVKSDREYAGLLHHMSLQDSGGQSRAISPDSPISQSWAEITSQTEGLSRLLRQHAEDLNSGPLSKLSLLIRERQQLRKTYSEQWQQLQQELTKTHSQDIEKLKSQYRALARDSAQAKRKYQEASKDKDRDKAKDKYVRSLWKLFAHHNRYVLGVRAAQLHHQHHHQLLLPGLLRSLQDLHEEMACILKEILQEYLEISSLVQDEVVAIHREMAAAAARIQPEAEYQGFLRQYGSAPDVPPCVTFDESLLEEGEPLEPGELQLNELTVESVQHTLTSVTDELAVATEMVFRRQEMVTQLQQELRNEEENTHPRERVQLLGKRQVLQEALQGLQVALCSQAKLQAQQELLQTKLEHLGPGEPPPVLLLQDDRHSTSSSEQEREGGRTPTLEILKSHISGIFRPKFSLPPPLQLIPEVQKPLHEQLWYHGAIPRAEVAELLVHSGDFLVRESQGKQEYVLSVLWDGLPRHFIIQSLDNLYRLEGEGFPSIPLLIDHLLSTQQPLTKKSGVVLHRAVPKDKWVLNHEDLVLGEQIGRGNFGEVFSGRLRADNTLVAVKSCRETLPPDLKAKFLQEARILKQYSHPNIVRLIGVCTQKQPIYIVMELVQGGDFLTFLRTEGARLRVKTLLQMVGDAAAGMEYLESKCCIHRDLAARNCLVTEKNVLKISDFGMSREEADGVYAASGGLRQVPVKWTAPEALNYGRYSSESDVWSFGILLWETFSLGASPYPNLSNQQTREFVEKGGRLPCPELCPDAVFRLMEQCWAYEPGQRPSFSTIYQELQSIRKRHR

FGFR3 = FGFR3 (UniProt P22607); assay: as above
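Throughout, for SH2 binding enrichment of the phosphorylated peptide, bacterial display: peptide library displayed on the E. coli surface as eCPX fusions, selected cells deep-sequenced, score is each peptide's frequency after selection divided by its frequency in the input.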
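Throughout, for phosphorylation enrichment, bacterial display: 11-residue human phosphosite peptides and single-mutation variants displayed on the E. coli surface, counted by deep sequencing, each peptide's frequency after selection divided by its frequency in the unselected input library; frequency after pTyr selection over input frequency; kinase dosed for 20-30% of maximal phosphorylation in three min.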

Sequence	SH2 binding enrichment (c-Src SH2)	SH2 binding enrichment (SHP2-C SH2)	SH2 binding enrichment (Grb2 SH2)	phosphorylation enrichment (EPHB1)	phosphorylation enrichment (Fer (mouse))	phosphorylation enrichment (Jak2)	phosphorylation enrichment (AncSZ)	phosphorylation enrichment (Fyn)	phosphorylation enrichment (EPHB2)	phosphorylation enrichment (MERTK)	phosphorylation enrichment (Hck)	phosphorylation enrichment (c-Src)	phosphorylation enrichment (FGFR1)	phosphorylation enrichment (c-Abl (mouse))	phosphorylation enrichment (Fes)	phosphorylation enrichment (FGFR3)
EFENSCIFDIN [GAB1_Y83_Y83C]	0.786	0.732	1.18	0.403	0.42	0.824	0.958	0.483	0.431	0.895	0.406	0.397	0.45	0.673	0.963	0.632
IVWDSYTTNKV [GNB3_Y85]	0.585	0.887	0.966	0.675	0.519	0.895	1	0.546	0.559	0.307	0.528	0.359	0.501	0.718	1.2	0.635
DVCKNYAKAKD [ALB_Y343_E345K]	0.559	0.956	1.03	0.469	0.473	0.607	0.71	0.428	0.535	0.51	0.439	0.4	0.409	0.633	0.627	0.498
WFISFYPQVIM [CTNS_Y143_S139F]	0.444	0.618	0.684	0.541	0.451	1.13	1.22	0.413	0.637	0.315	0.446	0.359	0.485	0.758	1.53	0.838

Second part, led by results:

SH2 binding enrichment (c-Src SH2)	SH2 binding enrichment (SHP2-C SH2)	SH2 binding enrichment (Grb2 SH2)	Sequence	phosphorylation enrichment (EPHB1)	phosphorylation enrichment (Fer (mouse))	phosphorylation enrichment (Jak2)	phosphorylation enrichment (AncSZ)	phosphorylation enrichment (Fyn)	phosphorylation enrichment (EPHB2)	phosphorylation enrichment (MERTK)	phosphorylation enrichment (Hck)	phosphorylation enrichment (c-Src)	phosphorylation enrichment (FGFR1)	phosphorylation enrichment (c-Abl (mouse))	phosphorylation enrichment (Fes)	phosphorylation enrichment (FGFR3)
0.681	0.862	0.851	GDYYCYLAEVA [YWHAG_Y133_R132C]	13	5.61	6.33	5.32	4.95	14.7	7.27	4.66	4.14	13.5	5.22	1.64	12.3
0.37	0.765	0.732	LVTCSYLLGNS [LMNA_Y646_R644C]	1.14	0.959	2.94	2.16	0.756	1.56	0.99	0.803	1.3	0.76	1.95	3.29	1.72
0.517	0.867	0.888	SLGKGYSVGGC [MC4R_Y35_D37V]	0.523	0.484	0.846	0.724	0.432	0.501	0.354	0.434	0.384	0.456	0.593	0.898	0.627
0.453	0.679	0.746	ECKLRYSRKEG [PTPN11_Y263_L262R]	0.457	0.376	0.378	0.527	0.52	0.533	0.523	0.503	0.423	0.484	0.452	0.606	0.53
